Data reported in US20110045489A1, “Polymerases for Incorporating Modified Nucleotides” (NEW ENGLAND BIOLABS, INC., priority 2008, published 2011).

Legend:
Assay type in all cases: biochemical
3′-O-azidomethyl-dCTP = assay: Titration assay, incorporation of 3′-O-azidomethyl-dCTP; details: for 3′-O-azidomethyl-dCTP incorporation / termination of synthesis: 72° C. (9° N) or 37° C.; for effect of the mutations on 3′-O-azidomethyl-dCTP incorporation: versus parent exo- polymerase
Description: Reactions were also performed in the absence of terminators to ensure that synthesis by each DNA polymerase was sufficient to extend primers without premature termination (“dNTP” lanes). Reactions with Therminator™ (NEB, Inc., Ipswich, Mass.) and 9° N exo-L408P/Y409A/S411T DNA polymerase (SEQ ID NO:6) were incubated at 72° C. for 30 minutes. Reactions with E. coli Polymerase I (pol I) (NEB, Inc., Ipswich, Mass.), Sequenase™, (USB, Inc., Cleveland, Ohio), Mma exo- and Mma exo-L417P/Y418A/S420T were incubated at 37° C. for 30 minutes. Each band corresponds to a DNA fragment terminated by a 3′-azido-dCMP. Using a titration assay as described in Gardner and Jack (2002), the relative 3′-azido-dCTP incorporation efficiency was determined for a series of DNA polymerases.
Incorporation of 3′-O-azidomethyl-dCTP by various DNA polymerases was measured using the titration assay as described in Example 1. For each reaction, a ratio of either 10:1 or 1:1 3′-O-azidomethyl-dCTP:dNTP was used to generate a termination pattern. Each band corresponded to a DNA fragment terminated by a 3′-azido-dCMP. A control reaction lacking terminator (dNTP) which yielded large extension products gave assurance that the DNA polymerase was active, and that termination products resulted from terminator incorporation rather than incomplete polymerization. Reactions with Therminator™ (NEB, Inc., Ipswich, Mass.) and 9° N exo-L408P/Y409A/S411T DNA polymerase were incubated at 72° C. for 30 minutes. Reactions with E. coli Polymerase I (pol I) (NEB, Inc., Ipswich, Mass.), Sequenase™ (USB, Inc., Cleveland, Ohio), Mma exo- and Mma exo-L417P/Y418A/S420T were conducted at 37° C. for 30 mintues. Therminator™ (NEB, Inc., Ipswich, Mass.) DNA polymerase was assayed with a 1:1 ratio of acyCTP as control.

modified nucleotide = assay: Screen of DNA polymerase mutants for modified nucleotide incorporation
Source text: In order to determine the extent of 3′-modified nucleotide incorporation by archaeon DNA polymerases, the titration assay described by Gardner and Jack (2002) was used. In this assay, the efficiency of incorporation of chain terminators was judged by the size of the reaction products in a polymerization reaction. As the efficiency of chain-terminator incorporation increased, the average reaction product size decreased because polymerization was more often halted by terminator addition. By comparing the amount of terminator required to give the same spectrum of reaction products, the relative efficiency of incorporation of the test compounds with the different polymerases was determined.
A complex library of 9° N DNA polymerase mutants was screened for enhanced incorporation of 3′-azido-ddCTP. Several classes of 9° N DNA polymerase mutants were identified with enhanced terminator incorporation. 9° N exo-L408S/Y409A/P410V (Therminator III™, NEB, Inc., Ipswich, Mass.) was purified and characterized in more detail. 9° N DNA polymerase single mutants P410V, L408S, and Y409A and double mutants L408S/P410V, L408S/Y409A, and Y409A/P410V were also purified for comparison. Purification and characterization of DNA polymerase mutants was as described in Gardner and Jack, Nucleic Acids Res. 27:2545-2553 (1999).
A library of 9° N DNA polymerase mutants was constructed by PCR amplification of the polymerase genes using gene-specific primers or codon optimization and gene synthesis Czar et al. Trends Biotechnol 27(2): 63-72 (2009)). The ability to incorporate 3′-modified nucleotide terminators was evaluated by the titration assay for chain terminator incorporation efficiency as described by Gardner and Jack (2002).
Furthermore, the same assay was used to measure 3′-amino-ddCTP incorporation by 9° N exo-L408S/Y409A/P410V (FIG. 3) and to measure rates of incorporation (FIG. 4). Examples of mutants that increased modified nucleotide incorporation by at least two-fold were: […]

3′-azido-ddCTP = assay: Titration assay for chain terminator incorporation efficiency (3′-azido-ddCTP); details: 3′-azido-ddCTP:dNTP 10:1, 2.5:1, 1:2.5; FIG. 1
Description: FIG. 1A-1D show titration assays for chain terminator incorporation efficiency. The relative efficiency of incorporation of modified nucleotide terminators was assessed using the titration assay described in Gardner and Jack Nucleic Acids Research 30: 605-613 (2002). A dye-labeled oligonucleotide primer 5′-AGTGAATTCGAGCTCGGTACCCGGGGATCCTCTAGAGTCGACCTGCAGGC-3′ was annealed to a single-stranded M13mp18 DNA template (Accession No. X02513) and extended by a DNA polymerase in the presence of various ratios of 3′-azido-ddCTP:dNTP (10:1, 2.5:1, 1:2.5) or dNTP (“dN” in the figure) alone in 1×ThermoPol buffer (20 mM Tris-HCl, 10 mM (NH4)2SO4,10 mM KCl, 2 mM MgSO4, 0.1% Triton X-100, pH 8.8 @ 25° C.). […]
In order to determine the extent of 3′-modified nucleotide incorporation by archaeon DNA polymerases, the titration assay described by Gardner and Jack (2002) was used. […] By comparing the amount of terminator required to give the same spectrum of reaction products, the relative efficiency of incorporation of the test compounds with the different polymerases was determined. […]
Once the spectrum of termination products was determined, a comparison of the length, uniformity and clarity of these patterns was used to evaluate incorporation of the terminator. […]
The size distribution of termination products was determined by the relative rates of dNTP and terminator incorporation. […]

[1] = 10:1 or 1:1 3′-O-azidomethyl-dCTP:dNTP, 30 minutes

relative 3′-O-azidomethyl-dCTP incorporation efficiency, rank order (3′-O-azidomethyl-dCTP; 10:1 or 1:1 3′-O-azidomethyl-dCTP:dNTP, 72° C. or 37° C., 30 minutes, FIG. 8) | increase of modified nucleotide incorporation (modified nucleotide) | 3′-azido-ddCTP incorporation efficiency relative to wild-type 9° N exo-DNA polymerase (3′-azido-ddCTP) | Molecule | 3′-O-azidomethyl-dCTP incorporation / termination of synthesis (3′-O-azidomethyl-dCTP; [1]) | effect of the mutations on 3′-O-azidomethyl-dCTP incorporation (3′-O-azidomethyl-dCTP)
greater than Mma exo- | at least two-fold |  | Mma exo-L417P/Y418A/S420T: exonuclease minus mutant Mma DNA polymerase, SEQ ID NO:23 (protein, listed as Methanococcus maripaludis, (1)..(784) exo_ L417P/Y418A/S420T mutant) MESLIDLDYNSDDLCIYLYLINSIIKEKDFKPYFYVNSTDKEQILEFLKDYEKKHKLDSEISKMIENIETVKKIVFDENYQEKELSKVTVKYPNNVKTVREILMEFERLYEYDIPFVRRYLIDNSVIPTSTWDFENNKKIDNKIPDFKTVSFAIAVYCNKEPNPKKDPIIMASFSSKDFNTVVSTKKFDHEKLEYVKDEKELIKRIIEILKEYDIIYTYNGDNFDFPYLKKRAESFGLELKLGKNDEKIKITKGGMNSKSYIPGRVHIDLYPIARRLLNLTKYRLENVTEALFDVKKVDVGHENIPKMWDNLDETLVEYSHQDAYYTQRIGEQFLPLEIMFSRVVNQSLYDINRMSSSQMVEYLLLKNSYKMGVIAPNRPSGKEYQKRIRSSYEGGYVKEPLKGIHEDIVSMDFLSPAPTIIMSHNLSPETIDCTCCSDEENGENEEILGHKFCKKSIGIIPKTLMDLINRRKKVKKVLREKAEKGEFDEEYQILDYEQRSIKVLANSHYGYLAFPMARWYSRDCAEITTHLGRQYIQKTIEEAENFGFKVIYADTDGFYSKWADDKEKLSKYELLEKTREFLKNINNTLPGEMELEFEGYFKRGIFVTKKKYALIDENEKITVKGLEVVRRDWSNVSKNTQKNVLNALLKEGSVENAKKVIQDTIKELKDGKVNNEDLLIHTQLTKRIEDYKTTAPHVEVAKKILKSGNRVNTGDVISYIITSGNKSISERAEILENAKNYDTNYYIENQILPPVIRLMEALGITKDELKDSKKQYTLHHFLK | incorporated 3′-O-azidomethyl-dCTP efficiently | increased 3′-O-azidomethyl-dCTP incorporation
 | at least two-fold |  | 9° N exo-L408P/Y409A/S411T: 9° N DNA polymerase mutant, SEQ ID NO:6 (protein, Thermococcus sp. 9 degrees N DNAP mutant) MILDTDYITENGKPVIRVFKKENGEFKIEYDRTFEPYFYALLKDDSAIEDVKKVTAKRHGTVVKVKRAEKVQKKFLGRPIEVWKLYFNHPQDVPAIRDRIRAHPAVVDIYEYDIPFAKRYLIDKGLIPMEGDEELTMLAFAIATLYHEGEEFGTGPILMISYADGSEARVITWKKIDLPYVDVVSTEKEMIKRFLRVVREKDPDVLITYNGDNFDFAYLKKRCEELGIKFTLGRDGSEPKIQRMGDRFAVEVKGRIHFDLYPVIRRTINLPTYTLEAVYEAVFGKPKEKVYAEEIAQAWESGEGLERVARYSMEDAKVTYELGREFFPMEAQLSRLIGQSLWDVSRSSTGNLVEWFLLRKAYKRNELAPNKPDERELARRRGGYAGGYVKEPERGLWDNIVYLDFRSPAPTIIITHNVSPDTLNREGCKEYDVAPEVGHKFCKDFPGFIPSLLGDLLEERQKIKRKMKATVDPLEKKLLDYRQRAIKILANSFYGYYGYAKARWYCKECAESVTAWGREYIEMVIRELEEKFGFKVLYADTDGLHATIPGADAETVKKKAKEFLKYINPKLPGLLELEYEGFYVRGFFVTKKKYAVIDEEGKITTRGLEIVRRDWSEIAKETQARVLEAILKHGDVEEAVRIVKEVTEKLSKYEVPPEKLVIHEQITRDLRDYKATGPHVAVAKRLAARGVKIRPGTVISYIVLKGSGRIGDRAIPADEFDPTKHRYDAEYYIENQVLPAVERILKAFGYRKEDLRYQKTKQVGLGAWLKVKGKK | incorporated 3′-O-azidomethyl-dCTP efficiently | increased 3′-O-azidomethyl-dCTP incorporation
 | at least two-fold | at least 2 fold | 9° N exo-L408S/P410V: 9° N DNA polymerase mutant (protein, UniProt Q56366 1-775, looked up, variant D141A E143A L408S P410V) DNA polymerase: MILDTDYITENGKPVIRVFKKENGEFKIEYDRTFEPYFYALLKDDSAIEDVKKVTAKRHGTVVKVKRAEKVQKKFLGRPIEVWKLYFNHPQDVPAIRDRIRAHPAVVDIYEYDIPFAKRYLIDKGLIPMEGDEELTMLAFAIATLYHEGEEFGTGPILMISYADGSEARVITWKKIDLPYVDVVSTEKEMIKRFLRVVREKDPDVLITYNGDNFDFAYLKKRCEELGIKFTLGRDGSEPKIQRMGDRFAVEVKGRIHFDLYPVIRRTINLPTYTLEAVYEAVFGKPKEKVYAEEIAQAWESGEGLERVARYSMEDAKVTYELGREFFPMEAQLSRLIGQSLWDVSRSSTGNLVEWFLLRKAYKRNELAPNKPDERELARRRGGYAGGYVKEPERGLWDNIVYLDFRSSYVSIIITHNVSPDTLNREGCKEYDVAPEVGHKFCKDFPGFIPSLLGDLLEERQKIKRKMKATVDPLEKKLLDYRQRAIKILANSFYGYYGYAKARWYCKECAESVTAWGREYIEMVIRELEEKFGFKVLYADTDGLHATIPGADAETVKKKAKEFLKYINPKLPGLLELEYEGFYVRGFFVTKKKYAVIDEEGKITTRGLEIVRRDWSEIAKETQARVLEAILKHGDVEEAVRIVKEVTEKLSKYEVPPEKLVIHEQITRDLRDYKATGPHVAVAKRLAARGVKIRPGTVISYIVLKGSGRIGDRAIPADEFDPTKHRYDAEYYIENQVLPAVERILKAFGYRKEDLRYQKTKQVGLGAWLKVKGKK |  | 
